In patent publication US20120316071A1 (published 2012):
Where a chain is given by its changes, count along the chain named. Numbers in names are those of the source.

B1: Fab VH1-46_IGHD6-6*01_IGHJ1*01 S102A/S103P/S104F/H111F S54A & L6_IGKJ1*01 (Fab, V domains shown)
VH: QVQLVQSGAEVKKPGASVKVSCKASGYTFTSYYMHWVRQAPGQGLEWMGIINPAGGSTSYAQKFQGRVTMTRDTSTSTVYMELSSLRSEDTAVYYCAREEYAPFSAEYFQFWGQGTLVTVSS
VL: not shown
notes: Fab made in E. coli: CH1 with His6/Flag tags from Plasmid A, kappa constant region from Plasmid C; also called APFF S54A
B2: Fab VH1-46_IGHD6-6*01_IGHJ1*01 S102A/S103P/S104F/H111F S57A & L6_IGKJ1*01 (Fab, V domains shown)
VH: B1 VH with A54S, S57A
VL: not shown
notes: Fab made in E. coli: CH1 with His6/Flag tags from Plasmid A, kappa constant region from Plasmid C; also called APFF S57A
B3: Fab VH1-46_IGHD6-6*01_IGHJ1*01 S102A/S103P/S104F/H111F S59A & L6_IGKJ1*01 (Fab, V domains shown)
VH: B1 VH with A54S, S59A
VL: not shown
notes: Fab made in E. coli: CH1 with His6/Flag tags from Plasmid A, kappa constant region from Plasmid C; also called APFF S59A
B4: Fab VH1-46_IGHD6-6*01_IGHJ1*01 & L6_IGKJ1*01 (Fab, V domains shown)
VH: B1 VH with A54S, A102S, P103S, F104S, F111H
VL: not shown
notes: Germline 'Hit' Fab; The VH was cloned into Plasmid A (CH1, His6 and Flag tags) and the kappa VL into Plasmid C (kappa CL); expressed in E. coli; also called Parent; parental
B5: Fab VH1-46_IGHD6-6*01_IGHJ1*01 S102A & L6_IGKJ1*01 (Fab, V domains shown)
VH: B1 VH with A54S, P103S, F104S, F111H
VL: not shown
notes: Fab; The VH was cloned into Plasmid A (CH1, His6 and Flag tags) and the kappa VL into Plasmid C (kappa CL); expressed in E. coli
B6: Fab VH1-46_IGHD6-6*01_IGHJ1*01 S103A & L6_IGKJ1*01 (Fab, V domains shown)
VH: B1 VH with A54S, A102S, P103A, F104S, F111H
VL: not shown
notes: as for B5
B7: Fab VH1-46_IGHD6-6*01_IGHJ1*01 S103P & L6_IGKJ1*01 (Fab, V domains shown)
VH: B1 VH with A54S, A102S, F104S, F111H
VL: not shown
notes: as for B5
B8: Fab VH1-46_IGHD6-6*01_IGHJ1*01 S102A/S103P/S104F/H111F/I51A/N52L/S54T/G56H (APFF ALTH) & L6_IGKJ1*01 (Fab, V domains shown)
VH: B1 VH with I51A, N52L, A54T, G56H
VL: not shown
notes: Fab made in E. coli; CH1 with tags and kappa CL are not included
B9: Fab VH1-46_IGHD6-6*01_IGHJ1*01 S102A/S103P/S104F/H111F/I51E/N52L/S54T/G56H (APFF ELTH) & L6_IGKJ1*01 (Fab, V domains shown)
VH: B1 VH with I51E, N52L, A54T, G56H
VL: not shown
notes: as for B8
B10: Fab VH1-46_IGHD6-6*01_IGHJ1*01 S102A/S103P/S104F/H111F/I51G/N52L/S54T/G56H (APFF GLTH) & L6_IGKJ1*01 (Fab, V domains shown)
VH: B1 VH with I51G, N52L, A54T, G56H
VL: not shown
notes: as for B8
B11: Fab VH1-46_IGHD6-6*01_IGHJ1*01 S102A/S103P/S104F/H111F/I51H/N52L/S54T/G56H (APFF HLTH) & L6_IGKJ1*01 (Fab, V domains shown)
VH: B1 VH with I51H, N52L, A54T, G56H
VL: not shown
notes: as for B8
B12: Fab VH1-46_IGHD6-6*01_IGHJ1*01 S102A/S103P/S104F/H111F/I51N/N52L/S54T/G56H (APFF NLTH) & L6_IGKJ1*01 (Fab, V domains shown)
VH: B1 VH with I51N, N52L, A54T, G56H
VL: not shown
notes: as for B8
B13: Fab VH1-46_IGHD6-6*01_IGHJ1*01 S102A/S103P/S104F/H111F/I51R/N52L/S54T/G56H (APFF RLTH) & L6_IGKJ1*01 (Fab, V domains shown)
VH: B1 VH with I51R, N52L, A54T, G56H
VL: not shown
notes: as for B8
B14: Fab VH1-46_IGHD6-6*01_IGHJ1*01 S102A/S103P/S104F/H111F/I51T/N52L/S54T/G56H (APFF TLTH) & L6_IGKJ1*01 (Fab, V domains shown)
VH: B1 VH with I51T, N52L, A54T, G56H
VL: not shown
notes: as for B8
B15: Fab VH1-46_IGHD6-6*01_IGHJ1*01 S102A/S103P/S104F/H111F/I51V/N52L/S54T/G56H (APFF VLTH) & L6_IGKJ1*01 (Fab, V domains shown)
VH: B1 VH with I51V, N52L, A54T, G56H
VL: not shown
notes: as for B8
B16: Fab VH1-46_IGHD6-6*01_IGHJ1*01 S102A/S103P/S104F/H111F/I51W/N52L/S54T/G56H (APFF WLTH) & L6_IGKJ1*01 (Fab, V domains shown)
VH: B1 VH with I51W, N52L, A54T, G56H
VL: not shown
notes: as for B8
B17: Fab VH1-46_IGHD6-6*01_IGHJ1*01 S102A/S103P/S104F/H111F/I51Y/N52L/S54T/G56H (APFF YLTH) & L6_IGKJ1*01 (Fab, V domains shown)
VH: B1 VH with I51Y, N52L, A54T, G56H
VL: not shown
notes: as for B8
B18: Fab VH1-46_IGHD6-6*01_IGHJ1*01 S102A/S103P/S104F/H111F/N52L/S54T/G56H (APFF LTH) & L6_IGKJ1*01 (Fab, V domains shown)
VH: B1 VH with N52L, A54T, G56H
VL: not shown
notes: Fab made in E. coli; CH1 with tags and kappa CL are not included; also called H:APFF LTH & L:wt
B19: Fab VH1-46_IGHD6-6*01_IGHJ1*01 S103A & L6_IGKJ1*01 (Fab, V domains shown)
VH: B1 VH with A54S, A102S, P103A, F104S, F111H
VL: not shown
notes: Heavy chain CDR3 alanine mutant of the parent Fab; Fab format with CH1, kappa CL, His6 and Flag tags from the expression plasmids
B20: Fab VH1-46_IGHD6-6*01_IGHJ1*01 S104A & L6_IGKJ1*01 (Fab, V domains shown)
VH: B1 VH with A54S, A102S, P103S, F104A, F111H
VL: not shown
notes: as for B19
B21: Fab VH1-46_IGHD6-6*01_IGHJ1*01 S105A & L6_IGKJ1*01 (Fab, V domains shown)
VH: B1 VH with A54S, A102S, P103S, F104S, S105A, F111H
VL: not shown
notes: as for B19

Each binder was assayed against T1, Recombinant Human DLL4 (delta-like protein 4) (human, UniProt Q9NR61 27-524) (assay: ECL (MSD) multispot binding assay, DLL4 immobilised, 10 nM Fab, DLL4 signal over blank).
T1 construct: Bought recombinant protein (R&D Systems Cat#1506-D4/CF); also called rHuman DLL4; Delta-like 4

In order of rising “Signal/Noise [10 nM Fab]” value:
1. B3  17.1
2. B1  122
3. B2  293

The binders below were run against T1, Recombinant Human DLL4 (delta-like …) (assay: ELISA on plate-coated DLL4, 100 nM Fab, signal minus noise).

In order of rising “ELISA (Signal-Noise)” value:
1. B3  0.02
2. B1  0.255
3. B2  0.39

Each binder was assayed against T2, Recombinant Human DLL4 (delta-like protein 4) (human, UniProt Q9NR61 27-529) (assay: ECL (MSD) multispot assay; Fab 0.01 µM).
T2 construct: Bought recombinant protein (R&D Systems Cat#1506-D4/CF); also called rHuman DLL4; Delta-like 4

In order of falling “ECL signal” value:
1. B7  4100
2. B5  2600
3. B6  1190
4. B4  1030

In order of rising Signal/Noise:
1. B6  4.5
2. B4  4.9
3. B5  10
4. B7  22.9

The binders below were run against T3, Recombinant Human DLL4 (delta-like protein 4) (human, UniProt Q9NR61 27-529) (assay: 96-well plate ECL (MSD) binding assay on coated DLL4, 10 nM Fab).
T3 construct: Bought recombinant human DLL4 (R&D Systems Cat#1506-D4/CF), coated on the plate; also called rHuman DLL4; Delta-like 4

In order of falling “ECL signal” value:
1. B15  192000
2. B9  167000
3. B18  165000
4. B11  155000
5. B17  155000
6. B8  143000
7. B10  131000
8. B12  126000
9. B16  126000
10. B14  123000
11. B13  92400

What follows are binders tested against T4, Recombinant Human DLL4 (human, UniProt Q9NR61 27-524) (assay: ECL (MSD) 96-well plate assay; plate coated with 30 ug/mL DLL4; 0.02 uM Fab).
T4 construct: Bought recombinant protein (R&D Systems Cat#1506-D4/CF); also called delta-like protein 4; Delta-like 4

In order of falling “ECL signal” value:
1. B20  163000
2. B19  11600
3. B21  1100

In order of falling Signal/Noise:
1. B20  431
2. B19  30.5
3. B21  2.9

What follows are binders tested against T3, Recombinant Human DLL4 (delta-like …) (assay: ELISA on coated DLL4, 100 nM Fab).

In order of falling “ELISA signal” value:
1. B15  1.1
2. B18  1.1
3. B12  1.09
4. B9  0.995
5. B11  0.647
6. B14  0.641
7. B8  0.62
8. B17  0.513
9. B13  0.512
10. B10  0.407
11. B16  0.088

Each binder was assayed against T4, Recombinant Human DLL4 (assay: ECL (MSD) 96-well plate assay; plate coated with 15 ug/mL DLL4; 0.004 uM Fab).

In order of rising “ECL signal” value:
1. B21  181
2. B20  3610
3. B19  5150

In order of rising Signal/Noise:
1. B21  1.2
2. B20  24.8
3. B19  35.3

What follows are binders tested against T2, Recombinant Human DLL4 (delta-like …) (assay: ECL (MSD) multispot assay; Fab 0.1 µM).

In order of falling “ECL signal” value:
1. B7  19300
2. B5  15800
3. B6  7110
4. B4  7000

In order of rising Signal/Noise:
1. B6  31.6
2. B4  40.9
3. B5  71.6
4. B7  139
